Experimental data: patent US20190374506

Test system: Flag-PTEN

WW domain containing E3 ubiquitin protein ligase 1 (WWP1)
in vitro ubiquitination of Flag-PTEN (E1, E2, ubiquitin; western blot with anti-PTEN antibody), WWP1 alone: incubation of WWP1 alone only slightly triggered PTEN poly-ubiquitination | in vitro ubiquitination of Flag-PTEN, WWP1 and NEDD4-1 both present: in the presence of both WWP1 and NEDD4-1, PTEN was robustly K27-linked poly-ubiquitinated
